Assay results as given in PMC4971492, “Structural basis for misregulation of kinesin KIF21A autoinhibition by CFEOM1 disease mutations” (Scientific Reports, 2016).

Molecular target: the molecule itself
Assay: cross-linking; cysteine (disulfide) cross-linking in COS-7 lysates, 1 h room temperature, SDS-PAGE under reducing and non-reducing conditions, anti-GFP Western blot

B1: GFP-labelled CLIP-115 (natural protein)
chain: not shown
notes: CLIP-115 (CAP-Gly domain-containing linker protein 2); Species surmised as rat; source: COS-7, transfected, in lysate; not shown: GFP (monomeric), N-terminal, kept
  stoichiometry N: 2
